Data reported in the Human Domainome abundance scans (Beltran et al. 2025).
± gives the uncertainty stated by the source.

B1: Ankyrin repeat and SAM domain-containing protein 6, residues 774 to 836; numbered along this chain, Q68DC2 (parent)
chain: DEDELTGILKKLSLEKYQPIFEEQEVDMEAFLTLTDGDLKELGIKTDGSRQQILAAISELNAG

Variants of: B1
Assay: abundance fitness (aPCA) (normalised: wild type 0, dead -1); higher = more abundant; growth selection in yeast, the domain comes from the species named
Conditions: Homo sapiens

Variant	abundance fitness
DEDELTGILKKLSLEKYQPIFEEMEVDMEAFLTLTDGDLKELGIKTDGSRQQILAAISELNAG [Q24M]	-0.165 ± 0.1
DEDELTGILKKLSLEKYQPIFEEKEVDMEAFLTLTDGDLKELGIKTDGSRQQILAAISELNAG [Q24K]	-0.042 ± 0.081
DEDELTGILKKLSLEKYQPIFEEDEVDMEAFLTLTDGDLKELGIKTDGSRQQILAAISELNAG [Q24D]	-0.369 ± 0.07
DEDELTGILKKLSLEKYQPIFEEREVDMEAFLTLTDGDLKELGIKTDGSRQQILAAISELNAG [Q24R]	-0.096 ± 0.044
DEDELTGILKKLSLEKYQPIFEEGEVDMEAFLTLTDGDLKELGIKTDGSRQQILAAISELNAG [Q24G]	-0.128 ± 0.042
DEDELTGILKKLSLEKYQPIFEEQEVAMEAFLTLTDGDLKELGIKTDGSRQQILAAISELNAG [D27A]	-0.47 ± 0.042
DEDELTGILKKLSLEKYQPIFEEQEVTMEAFLTLTDGDLKELGIKTDGSRQQILAAISELNAG [D27T]	0.001 ± 0.044
DEDELTGILKKLSLEKYQPIFEEQEVFMEAFLTLTDGDLKELGIKTDGSRQQILAAISELNAG [D27F]	-1.25 ± 0.25
DEDELTGILKKLSLEKYQPIFEEQEVQMEAFLTLTDGDLKELGIKTDGSRQQILAAISELNAG [D27Q]	-0.44 ± 0.073
DEDELTGILKKLSLEKYQPIFEEQEVVMEAFLTLTDGDLKELGIKTDGSRQQILAAISELNAG [D27V]	-0.988 ± 0.045
DEDELTGILKKLSLEKYQPIFEEQEVWMEAFLTLTDGDLKELGIKTDGSRQQILAAISELNAG [D27W]	-0.857 ± 0.11
DEDELTGILKKLSLEKYQPIFEEQEVCMEAFLTLTDGDLKELGIKTDGSRQQILAAISELNAG [D27C]	-0.376 ± 0.075
DEDELTGILKKLSLEKYQPIFEEQEVKMEAFLTLTDGDLKELGIKTDGSRQQILAAISELNAG [D27K]	-0.212 ± 0.051
DEDELTGILKKLSLEKYQPIFEEQEVIMEAFLTLTDGDLKELGIKTDGSRQQILAAISELNAG [D27I]	-0.827 ± 0.096
DEDELTGILKKLSLEKYQPIFEEQEVHMEAFLTLTDGDLKELGIKTDGSRQQILAAISELNAG [D27H]	-0.282 ± 0.075
DEDELTGILKKLSLEKYQPIFEEQEVPMEAFLTLTDGDLKELGIKTDGSRQQILAAISELNAG [D27P]	-0.483 ± 0.054
DEDELTGILKKLSLEKYQPIFEEQEVEMEAFLTLTDGDLKELGIKTDGSRQQILAAISELNAG [D27E]	-0.294 ± 0.063
DEDELTGILKKLSLEKYQPIFEEQEVSMEAFLTLTDGDLKELGIKTDGSRQQILAAISELNAG [D27S]	-0.075 ± 0.048
DEDELTGILKKLSLEKYQPIFEEQEVYMEAFLTLTDGDLKELGIKTDGSRQQILAAISELNAG [D27Y]	-0.729 ± 0.077
DEDELTGILKKLSLEKYQPIFEEQEVRMEAFLTLTDGDLKELGIKTDGSRQQILAAISELNAG [D27R]	-0.215 ± 0.044
DEDELTGILKKLSLEKYQPIFEEQEVLMEAFLTLTDGDLKELGIKTDGSRQQILAAISELNAG [D27L]	-0.895 ± 0.054
DEDELTGILKKLSLEKYQPIFEEQRVDMEAFLTLTDGDLKELGIKTDGSRQQILAAISELNAG [E25R]	-0.147 ± 0.069

Variant	abundance fitness
DEDELTGILKKLSLEKYQPIFEEQHVDMEAFLTLTDGDLKELGIKTDGSRQQILAAISELNAG [E25H]	-0.048 ± 0.062
DEDELTGILKKLSLEKYQPIFEEQGVDMEAFLTLTDGDLKELGIKTDGSRQQILAAISELNAG [E25G]	-0.023 ± 0.078
DEDELTGILKKLSLEKYQPIFEEQNVDMEAFLTLTDGDLKELGIKTDGSRQQILAAISELNAG [E25N]	0.006 ± 0.051
DEDELTGILKKLSLEKYQPIFEEQIVDMEAFLTLTDGDLKELGIKTDGSRQQILAAISELNAG [E25I]	-0.281 ± 0.06
DEDELTGILKKLSLEKYQPIFEEQFVDMEAFLTLTDGDLKELGIKTDGSRQQILAAISELNAG [E25F]	-0.166 ± 0.051
DEDELTGILKKLSLEKYQPIFEEQWVDMEAFLTLTDGDLKELGIKTDGSRQQILAAISELNAG [E25W]	-0.449 ± 0.17
DEDELTGILKKLSLEKYQPIFEEQMVDMEAFLTLTDGDLKELGIKTDGSRQQILAAISELNAG [E25M]	-0.038 ± 0.084
DEDELTGILKKLSLEKYQPIFEEQLVDMEAFLTLTDGDLKELGIKTDGSRQQILAAISELNAG [E25L]	-0.293 ± 0.062
DEDELTGILKKLSLEKYQPIFEEQYVDMEAFLTLTDGDLKELGIKTDGSRQQILAAISELNAG [E25Y]	-0.262 ± 0.05
DEDELTGILKKLSLEKYQPIFEEQDVDMEAFLTLTDGDLKELGIKTDGSRQQILAAISELNAG [E25D]	-0.159 ± 0.063
DEDELTGILKKLSLEKYQPIFEEQQVDMEAFLTLTDGDLKELGIKTDGSRQQILAAISELNAG [E25Q]	-0.204 ± 0.21
DEDELTGILKKLSLEKYQPIFEEQTVDMEAFLTLTDGDLKELGIKTDGSRQQILAAISELNAG [E25T]	-0.412 ± 0.082
DEDELTGILKKLSLEKYQPIFEEQCVDMEAFLTLTDGDLKELGIKTDGSRQQILAAISELNAG [E25C]	-0.073 ± 0.057
DEDELTGILKKLSLEKYQPIFEEQAVDMEAFLTLTDGDLKELGIKTDGSRQQILAAISELNAG [E25A]	0.023 ± 0.11
DEDELTGILKKLSLEKYQPIFEEQVVDMEAFLTLTDGDLKELGIKTDGSRQQILAAISELNAG [E25V]	-0.21 ± 0.061
DEDELTGILKKLSLEKYQPIFEEQSVDMEAFLTLTDGDLKELGIKTDGSRQQILAAISELNAG [E25S]	-0.08 ± 0.041
DEDELTGILKKLSLEKYQPIFEEQPVDMEAFLTLTDGDLKELGIKTDGSRQQILAAISELNAG [E25P]	-0.653 ± 0.14
DEDELTGILKKLSLEKYQPIFEEQKVDMEAFLTLTDGDLKELGIKTDGSRQQILAAISELNAG [E25K]	0.301 ± 0.15
DEDELTGILKKLSLEKYQPIFEVQEVDMEAFLTLTDGDLKELGIKTDGSRQQILAAISELNAG [E23V]	-0.593 ± 0.068
DEDELTGILKKLSLEKYQPIFETQEVDMEAFLTLTDGDLKELGIKTDGSRQQILAAISELNAG [E23T]	-0.231 ± 0.062
DEDELTGILKKLSLEKYQPIFEYQEVDMEAFLTLTDGDLKELGIKTDGSRQQILAAISELNAG [E23Y]	-0.543 ± 0.07
